According to US20250333501A1 (University of California, published 2025):
Numbering of substitutions follows the chain as printed.

Assays:
[1] = target: T1, CLDN6 endogenously expressed by human cancer cell lines (ARK2, OVCA429) (human, UniProt P56747 1-220); assay: FACS, AF647-labelled mAb, ARK2 cells
T1 construct: Untagged endogenous protein; also called Endogenous CLDN6+
T1 sequence: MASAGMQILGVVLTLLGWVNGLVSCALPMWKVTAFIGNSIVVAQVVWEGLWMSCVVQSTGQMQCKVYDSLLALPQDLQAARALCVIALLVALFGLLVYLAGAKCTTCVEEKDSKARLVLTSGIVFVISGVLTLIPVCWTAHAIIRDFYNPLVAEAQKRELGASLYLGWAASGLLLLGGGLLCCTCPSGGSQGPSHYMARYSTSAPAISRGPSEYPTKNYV
Experimental: (§1) Antibodies were purified and cell surface binding of the antibodies to CLDN6 and the antibody IC₅₀ were determined by FACS in which CLDN6 antibodies were directly conjugated with Alexa Fluor® 647 NHS Ester (Succinimidyl Ester), Cat #A20106 (ThermoFisher Scientific) following the manufacturer's protocol. CLDN6 antibodies were tested from 0.32 nM to 1000 nM (serial dilution 1:5, 6 points) in a 50 μl volume with 150,000 cells system.
(§2) CLDN6-expressing cells were used in FACS assays to determine the CLDN6 antibody's ability to bind to CLDN6 on the surface of cells and to cross-react with other CLDN family members. HEK293 T cells engineered to express human CLDN6 fused to GFP, mouse CLDN6 fused to GFP, CLDN9-GFP, CLDN4-GFP, or CLDN3-GFP, or GFP alone (without CLDN6) were used as artificial models of CLDN6 expression. ARK2, OVCA429, LS513 and MCF7 cells were used as endogenous models of CLDN6 expression, as well as models for CLDN3/4 expression.
(§3) For each type of cell tested and for each mAb, cells were detached from the surface of the culture flasks by EDTA (instead of trypsin) in order to protect the cell surface proteins. The detached cells were then incubated with Alexa Fluor®-labeled CLDN6 mAbs for 30 min in the dark on ice at a pre-determined concentration. The CLDN6 mAbs were directly labeled with Alexa Fluor® 647 NHS Ester (Succinimidyl Ester). After washing, the cells were read by a BD Accuri™ Flow Cytometer C6 to detect antibody-antigen protein binding in channel FL4H. Each antibody was tested at varied concentrations to establish a dose-fluorescence curve. The EC50/IC50 of the antibodies (the concentration of the antibody at which half the max value were calculated based on the values of FL4H (gated in viable singlet cells) using the Very Simple IC50 Tool kit available online which allows biological dose-response data to be plotted and fitted to curve types to give the EC50/IC50. The max value was the lowest concentration of the antibody at which fluorescence maxes out. The antibodies were also screened for their ability to cross-react with other CLDN proteins such as CLDN9, CLDN3, and CLDN4. These values were used to determine each antibody's relative affinity among the set of antibodies tested. Cross-reactivity data were obtained using a similar methodology, but with cells having a different expression profile for CLDN6, CLDN3, CLDN4 and CLDN9.

[2] = target: T1, CLDN6 endogenously expressed by human …; assay: FACS, AF647-labelled mAb, OVCA429 cells
Experimental: as §1, §2, §3

[3] = target: T2, human CLDN6 fused to GFP, expressed on engineered HEK293T cells (HEK293T-CLDN6-mGFP) (human, UniProt P56747 1-220); assay: FACS, AF647-labelled mAb, HEK293T-CLDN6-mGFP cells
T2 construct: It calls residues 1-21 a signal peptide; also called Claudin-6; HEK293T-CLDN6-mGFP Artificial CLDN6+; not shown: mGFP tag
T2 sequence: T1 sequence
Experimental: as §1, §2, §3

B1: AB5 (antibody, V domains shown)
VH: EVQLQQSGPELVKPGASVKMSCKASGYIFTHYIMHWVKQKPGQGLEWIGCINPYNDGTKYNEKFKGKATLTSDKSSSTAYMELSSLTSEDSAVYYCARYYGYPYYSMDYWGQGTSVTVSS
VL: DVLMTQTPLSLPVSLGDQPSISCRSSQSIVHSNGNTYLDWYLQKPGQSPKLLIYKVSNRFSGVPDRFSGSGSGTDFTLKISRVEAEDLGVYYCFQGSHVPFTFGSGTRLEIK
notes: Labelled with Alexa Fluor 647 NHS ester for FACS
**Q.** How did the EC50 [1] turn out when B1 was run?
**A.** 8 nM

**Q.** What about the EC50 [2] of the same binder?
**A.** 5 nM

**Q.** What about the EC50 [3] of the same binder?
**A.** 10 nM

B2: AB6 (antibody, V domains shown)
VH: DVQLQESGPGLVKSSQSLSLTCSVTGYSITSGYYWKWIRQFPGNKLEWMGYISYDGGINYNPSLKNRISITRDTSKNQFFLKLNSVTTEDTAKYYCARFGKGAMDYWGQGTSVTVSS
VL: AIVMFQSPSSLVVSAGEKVTMSCKSSQSLLNSRTRKNYLAWYQQKPGQSPKLLIYWASTRESGVPDRFTGSGSGTDFTLTISSVQAEDLAVYYCKQSYYLYTFGGGTKLEIK
notes: as for B1
**Q.** B2 was tested. Which EC50 [1] did it give?
**A.** 765 nM

**Q.** What about the EC50 [2] of the same binder?
**A.** 394 nM

**Q.** What about the EC50 [3] of the same binder?
**A.** 1430 nM

B3: AB7 (antibody, V domains shown)
VH: EVQLQQSGPELVKPGASMKISCKASGYSFTGYTMNWVKQSHGKNLEWIGLINPYNGGTNYNQKFKGKATLTVDKSSSTAYMELLSLTSEDSAVYYCARGVYDYDGFTYWGQGTLVTVSA
VL: QIVLTQSPAIMSASLGDRVTMTCTASSSVSSSYLHWYQQKPGSSPKLWIYSTSNLASGVPARFSGSGSGTSYSLTISSMEAEDAATYYCHQYHRSPPTFGSGTKLEIK
notes: as for B1
**Q.** What does the source list for B3?
**A.** EC50 [1]: 353 nM; EC50 [2]: 531 nM; EC50 [3]: 579 nM

B4: AB8 (antibody, V domains shown)
VH: QVQLQQSGAELARPGASVKMSCKASGYTFTTYTMHWLKQRPGQGLEWIGYINPRSGYSNYNQKFKDKATLTADKSSNTAYMQLNTLTSEDSKVYYCSRGELGGFAYWGQGTLVTVSA
VL: DVVMTQTPLSLPVSLGDQASISCRSSQSLVHSDGNTYLYWYLQKPGQSPKLLIYKVSNRFSGVPDRFSGSGSGTDFTLKISRVEAEDLGVYFCSQSTHVPYTFGGGTKLEIK
notes: as for B1
**Q.** B4 was tested. Which EC50 [1] did it give?
**A.** 1140 nM

**Q.** And the EC50 [2]?
**A.** 1090 nM

**Q.** And the EC50 [3]?
**A.** 1920 nM

B5: AB9 (antibody, V domains shown)
VH: EVQLQQSGPELVKPGASVKMSCKASGYRFTDYNMHWVKQSHGKSLEWIGYINPNNGGTNYNQNFKGKATLTVNKSSSTAYMELRSLTSEDSAAYYCARDYLYFFDCWGQGTTLTVSS
VL: DIQMTQSPASQSASLGESVTITCLASQTIGTWLAWYQQKPGKSPQLLIYAAASLADGVPSRFSGSGSGTRFSFKISSLQAEDFVSYYCQQLYSIPRTFGGGTKLEIK
notes: as for B1
**Q.** How did the EC50 [1] turn out when B5 was run?
**A.** 1140 nM

**Q.** And the EC50 [2]?
**A.** 1160 nM

**Q.** What about the EC50 [3] of the same binder?
**A.** 2670 nM

B6: AB10 (antibody, V domains shown)
VH: QIQLVQSGPALKKPGETVKISCKASGYTFTDYSMHWIKQAPGKGLKWMGWISTETGEPTYADGFKGRFDFSLETSADTAYLSINNLTNEDTATYFCTRGLWSSFAYWGQGTLVTVSA
VL: B4 VL with S25A, D33N, Y39H, Y41F, G73R, S96I
notes: as for B1
**Q.** For B6, which EC50 [1] is on record?
**A.** 2140 nM

**Q.** What about the EC50 [2] of the same binder?
**A.** 2470 nM

**Q.** What about the EC50 [3] of the same binder?
**A.** 2760 nM

B7: AB11 (antibody, V domains shown)
VH: DVQLVESGGGLVQPRGSRKLSCAASGFTFSSFGMHWVRQAPEKGLEWVAYISSDSRTIYYADTVKGRFTISRDNPTNTLFLQMTSLRSEDTAMYYCARDYGRTYEAYWGQGTLVTVSA
VL: DIVLTQSPASLAVSLGQRATISCRASKSVSTSGYSYIHWYQQKPGQPPKLLIYLASNLESGVPARFSGSGSGTDFTLNIHPVEEEDAATYYCQHSRELPLTFGAGTKLELK
notes: as for B1
**Q.** B7 was tested. Which EC50 [1] did it give?
**A.** 363 nM

**Q.** And the EC50 [2]?
**A.** 835 nM

**Q.** And the EC50 [3]?
**A.** 1700 nM

B8: AB12 (antibody, V domains shown)
VH: EVKLMESGGDLVKPGGSLKLSCAASGFTFSSYAMSWVRQTPEKRLEWVASIRSGGTTYYPDSVKGRFTISRDNARNILYLRMSSLRSEDTAIYYCAKVGGNPYPMDYWGQGTSVTVSS
VL: DIQMIQSPSSMFASLGDRVSLSCRASQDIGGNLDWYQQKPGGTIKLLIYSTSNLNSGVPSRFSGSGSGSDYSLTITSLESEDFADYYCLQRNAYPLTFGAGTKLELK
notes: as for B1
**Q.** What does the source list for B8?
**A.** EC50 [1]: 1300 nM; EC50 [2]: 2290 nM; EC50 [3]: ≥ 5000 nM

B9: AB13 (antibody, V domains shown)
VH: QVQLQQSGAELVRPGTSVKVSCKASGYAFSNYLIEWVKQRPGQGLEWIGVINPGSGGTNYNEKFKGKATMTADKSSSTAYMHLSNLTSEDSVVYFCARSYFGRSYPYTMDYWGQGTSVTVSS
VL: EIVLTQSPTTMAASPGEKITITCSASSSISSNYLHWYQQKPGFSPKLLIYRTSNLASGVPARFSGSGSGTSYSLTIGTMEAEDVATYYCQQGSSIPLTFGAGTKLELK
notes: as for B1
**Q.** For B9, which EC50 [1] is on record?
**A.** 1150 nM

**Q.** And the EC50 [2]?
**A.** 2290 nM

**Q.** And the EC50 [3]?
**A.** ≥ 5000 nM

B10: AB14 (antibody, V domains shown)
VH: QVQLQQSGPELVRPGVSVKISCKGSGYTFTDYAMHWVKQSHAKSLEWIGVISTYSGNTNYNQKFQDKATMTVDKSSSTAYMALARLTSDDSAIYYCARRGDYSLYAMDYWGQGTSVTVSS
VL: DIVLTQSPASLAVSLGQRATISCKASQSVDYDGDNYVNWYQQKVGQPPKLLISAASNLESGIPARFSGSGSGTDFTLNIHPVEEEDAATYYCQQSNEDPFTFGSGTKLEIK
notes: as for B1
**Q.** For B10, which EC50 [1] is on record?
**A.** 1300 nM

**Q.** What about the EC50 [2] of the same binder?
**A.** 1660 nM

**Q.** And the EC50 [3]?
**A.** ≥ 5000 nM

B11: AB18 (antibody, V domains shown)
VH: QVQLKQSGPELEKPGASVKISCKASGYSFTGYNMNWVKQSNGKSLEWIGNIDPYYGGSTYNQKFTGKATLTVDKSSSTAYMQLKSLTSEDSAVYYCARERSGYVFSAMDYWGQGTSVTVSS
VL: NIMMTQSPSSLAVSAGEKVTMSCKSSQSVLFSSNQKNYLAWYQQKPGQSPRLLIYWASTRESGVPDRFTGSGSGTDFTLTISNVQAEDLAVYYCHQYLSSRTFGAGTKLELK
notes: as for B1
**Q.** With B11 as the binder, how does the EC50 [1] read?
**A.** 1350 nM

**Q.** And the EC50 [2]?
**A.** 2440 nM

**Q.** What about the EC50 [3] of the same binder?
**A.** ≥ 5000 nM
